Test results from patent US20260250318A1, “COMPOSITIONS AND METHODS FOR CROSSING THE BLOOD BRAIN BARRIER” (VOYAGER THERAPEUTICS, INC., priority 2022, published 2026).

Key:
[1] = target: T1, murine ALPL ortholog expressed on HEK 293T cells (NM_001287172.1) (mouse, UniProt P09242 18-501); assay: cell-based or functional assay
T1 sequence: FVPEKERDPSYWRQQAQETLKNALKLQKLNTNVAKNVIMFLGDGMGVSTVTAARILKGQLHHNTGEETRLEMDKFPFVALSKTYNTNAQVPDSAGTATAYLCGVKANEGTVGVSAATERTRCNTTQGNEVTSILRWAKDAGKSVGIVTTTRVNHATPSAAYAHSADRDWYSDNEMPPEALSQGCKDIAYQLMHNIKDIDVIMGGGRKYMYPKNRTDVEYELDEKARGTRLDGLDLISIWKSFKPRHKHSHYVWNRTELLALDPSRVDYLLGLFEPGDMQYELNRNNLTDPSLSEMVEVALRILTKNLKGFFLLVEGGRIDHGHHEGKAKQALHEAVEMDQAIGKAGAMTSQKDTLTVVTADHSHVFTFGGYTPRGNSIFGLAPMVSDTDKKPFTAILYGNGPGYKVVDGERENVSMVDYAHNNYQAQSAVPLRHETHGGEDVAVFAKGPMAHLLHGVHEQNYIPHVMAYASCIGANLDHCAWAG

[2] = target: T2, cynomolgus ALPL ortholog expressed on HEK 293T cells (XM_005544525) (Macaca fascicularis); assay: cell-based or functional assay
T2 chain: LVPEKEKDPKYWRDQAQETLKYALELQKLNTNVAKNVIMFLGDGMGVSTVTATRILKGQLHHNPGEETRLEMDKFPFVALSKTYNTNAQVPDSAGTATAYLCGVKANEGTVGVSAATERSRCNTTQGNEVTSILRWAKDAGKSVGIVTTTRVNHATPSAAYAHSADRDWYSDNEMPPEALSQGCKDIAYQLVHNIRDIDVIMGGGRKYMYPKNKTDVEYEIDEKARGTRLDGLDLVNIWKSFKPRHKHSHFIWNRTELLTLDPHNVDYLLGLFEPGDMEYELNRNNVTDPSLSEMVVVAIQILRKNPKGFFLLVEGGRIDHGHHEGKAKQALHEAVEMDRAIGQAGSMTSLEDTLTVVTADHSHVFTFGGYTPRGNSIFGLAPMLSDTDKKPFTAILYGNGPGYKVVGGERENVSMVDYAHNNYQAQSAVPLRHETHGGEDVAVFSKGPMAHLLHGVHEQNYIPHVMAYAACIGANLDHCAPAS

B1: TTM-002 capsid variant (AAV particle comprising the TTM-002 AAV9 capsid variant) (other)
chain 1: MAADGYLPDWLEDNLSEGIREWWALKPGAPQPKANQQHQDNARGLVLPGYKYLGPGNGLDKGEPVNAADAAALEHDKAYDQQLKAGDNPYLKYNHADAEFQERLKEDTSFGGNLGRAVFQAKKRLLEPLGLVEEAAKTAPGKKRPVEQSPQEPDSSAGIGKSGAQPAKKRLNFGQTGDTESVPDPQPIGEPPAAPSGVGSLTMASGGGAPVADNNEGADGVGSSSGNWHCDSQWLGDRVITTSTRTWALPTYNNHLYKQISNSTSGGSSNDNAYFGYSTPWGYFDFNRFHCHFSPRDWQRLINNNWGFRPKRLNFKLFNIQVKEVTDNNGVKTIANNLTSTVQVFTDSDYQLPYVLGSAHEGCLPPFPADVFMIPQYGYLTLNDGSQAVGRSSFYCLEYFPSQMLRTGNNFQFSYEFENVPFHSSYAHSQSLDRLMNPLIDQYLYYLSKTINGHDSPHKSGQNQQTLKFSVAGPSNMAVQGRNYIPGPSYRQQRVSTTVTQNNNSEFAWPGASSWALNGRNSLMNPGPAMASHKEGEDRFFPLSGSLIFGKQGTGRDNVDADKVMITNEEEIKTTNPVATESYGQVATNHQSAQAQAQTGWVQNQGILPGMVWQDRDVYLQGPIWAKIPHTDGNFHPSPLMGGFGMKHPPPQILIKNTPVPADPPTAFNKDKLNSFITQYSTGQVSVEIEWELQKENSKRWNPEIQYTSNYYKSNNVEFAVNTEGVYSEPRPIGTRYLTRNL
chain 2: TAPGKKRPVEQSPQEPDSSAGIGKSGAQPAKKRLNFGQTGDTESVPDPQPIGEPPAAPSGVGSLTMASGGGAPVADNNEGADGVGSSSGNWHCDSQWLGDRVITTSTRTWALPTYNNHLYKQISNSTSGGSSNDNAYFGYSTPWGYFDFNRFHCHFSPRDWQRLINNNWGFRPKRLNFKLFNIQVKEVTDNNGVKTIANNLTSTVQVFTDSDYQLPYVLGSAHEGCLPPFPADVFMIPQYGYLTLNDGSQAVGRSSFYCLEYFPSQMLRTGNNFQFSYEFENVPFHSSYAHSQSLDRLMNPLIDQYLYYLSKTINGHDSPHKSGQNQQTLKFSVAGPSNMAVQGRNYIPGPSYRQQRVSTTVTQNNNSEFAWPGASSWALNGRNSLMNPGPAMASHKEGEDRFFPLSGSLIFGKQGTGRDNVDADKVMITNEEEIKTTNPVATESYGQVATNHQSAQAQAQTGWVQNQGILPGMVWQDRDVYLQGPIWAKIPHTDGNFHPSPLMGGFGMKHPPPQILIKNTPVPADPPTAFNKDKLNSFITQYSTGQVSVEIEWELQKENSKRWNPEIQYTSNYYKSNNVEFAVNTEGVYSEPRPIGTRYLTRNL
chain 3: MASGGGAPVADNNEGADGVGSSSGNWHCDSQWLGDRVITTSTRTWALPTYNNHLYKQISNSTSGGSSNDNAYFGYSTPWGYFDFNRFHCHFSPRDWQRLINNNWGFRPKRLNFKLFNIQVKEVTDNNGVKTIANNLTSTVQVFTDSDYQLPYVLGSAHEGCLPPFPADVFMIPQYGYLTLNDGSQAVGRSSFYCLEYFPSQMLRTGNNFQFSYEFENVPFHSSYAHSQSLDRLMNPLIDQYLYYLSKTINGHDSPHKSGQNQQTLKFSVAGPSNMAVQGRNYIPGPSYRQQRVSTTVTQNNNSEFAWPGASSWALNGRNSLMNPGPAMASHKEGEDRFFPLSGSLIFGKQGTGRDNVDADKVMITNEEEIKTTNPVATESYGQVATNHQSAQAQAQTGWVQNQGILPGMVWQDRDVYLQGPIWAKIPHTDGNFHPSPLMGGFGMKHPPPQILIKNTPVPADPPTAFNKDKLNSFITQYSTGQVSVEIEWELQKENSKRWNPEIQYTSNYYKSNNVEFAVNTEGVYSEPRPIGTRYLTRNL
Question: What does the source list for B1?
Answer: fold change in luciferase activity relative to the pCMV6 control cells (Murine ALPL) [1]: 57.2 fold; fold change in luciferase activity relative to the pCMV6 control cells (Cynomolgus ALPL) [2]: 81.5 fold
